Data on five molecules can be found in patent US20120100604A1, “METHODS AND COMPOSITIONS FOR GENERATING SELF ATTENUATING GENETIC CIRCUITRY” (THE REGENTS OF THE UNIVERSITY OF CALIFORNIA, priority 2008, published 2012).

One experiment deals with human satellite cells. The experiment can be described thus: Myogenic regenerative capacity of human satellite cells (proliferating fusion-competent myoblasts, desmin/BrdU). The experiment is classed as cell-based. The following applies: young and old human satellite cells in culture. The method, then: Myofiber and satellite cell cultures were isolated from basal state human biopsies, in a manner similar to those previously described for the mouse model (Conboy et al. (2003) Science 302:1575-1577). Whole muscle biopsies were prepared for myofiber fragments by enzymatic digestion −37° C. in DMEM (Invitrogen, Carlsbad, Calif.)/Pen-Strep (Invitrogen)/0.2% Collagenase Type IIA (Sigma), trituration, and multiple sedimentation and washing procedures. Isolated satellite cells and myofibers were resuspended in growth medium (Ham's F10 nutrient mixture—Mediatech, Inc., Herndon, Va.), 10% BGS, 5 ng/ml hbFGF (Invitrogen) and 1% Pen-Strep, and cultured on Matrigel (diluted 1:250). Blood was collected from subjects for sera isolation. Briefly, blood cells were coagulated followed by centrifugation at 8,000 rpm, 4° C. in a microfuge for 3 minutes. […]
To examine effects of TGF-β on myogenic properties of human muscle stem cells, exogenous molecule was added to young and old human satellite cells in culture. Myogenic capacity was determined based on numbers of fusion-competent, proliferating myoblasts, e.g., cells that rapidly (in approximately 2 hours) incorporate BrdU, co-express desmin and MyoD and fuse into eMyHC+myotubes when transferred to mitogen-low medium. […]

Experiment [1] deals with muscle stem cells (satellite cells). Nature of the experiment: Myogenic responses of mouse muscle stem cells in young or old mouse sera (TGF-β1 depletion and add-back, Wnt3A, FRP3). In kind it is cell-based. The method, then: To examine the relative role of circulating TGF-β1 in the age-specific inhibition of muscle stem cell responses, TGF-β1 was depleted from young and old mouse sera and then added back in a range of concentrations. Muscle stem cells derived from young and old mice were cultured in the presence of young and old mouse sera that differed only in the levels of TGF-β1, and the regenerative responses of these cells were assayed. Serum was depleted of TGF-β1 by incubation with a TGF-β1 specific antibody (or an isotype-matched control IgG) followed by binding and removal of the TGF-β1-antibody complexes (or IgG control antibody complexes, e.g. control sera) using protein G-coated agarose beads. The success in the TGF-β1 depletion was confirmed by ELISA. The myogenic regenerative potential of muscle stem cells was quantified based on their ability to rapidly (overnight) generate de-novo myogenic lineages: BrdU-incorporating desmin+myoblasts (myogenic proliferation) that differentiate into post-mitotic eMyHC+myotubes (myogenic differentiation). The time course of such de-novo in vitro myogenesis that recapitulates the in vivo muscle repair is shown in FIG. 14A-D. Myogenic proliferation (at 24-28 hours of culture) and myogenic differentiation (at 48-72 hours of culture) were consistently higher for young satellite cells as compared to old satellite cells and in young sera as compared to old sera at all time points (FIGS. 17 and 18). The non-myogenic, desmin negative proliferating fibroblasts (known to contaminate satellite cell preparations at ˜2-5% and to expand in the presence of old sera or high levels of TGF-β (Carlson et al., 2008) were less numerous in cultures with experimentally calibrated levels of TGF-β1 (FIG. 15) and also declined in cultures with exogenous Wnt 3A (FIG. 16A).
Recombinant TGF-β1 was added at a range of concentrations to these mouse sera (depleted from endogenous TGF-β1) and assayed the regenerative responses of muscle stem cells, as above. […] The levels of TGF-β1 that are permissive for myogenic responses correspond to the range of bioactive TGF-β1 found in young blood sera, while the inhibitory range corresponds to the levels typical of aged circulation. The threshold mode of TGF-β1-imposed inhibition of muscle repair established here, also correlate well with the results of heterochronic parabiosis.
A similar rescue of satellite cell responses in the presence of old serum was reported to be achieved by inhibition of Wnt via FRPs, and exogenous Wnt3A was reported to inhibit satellite cell myogenic responses, in favor of fibroblast trans-differentiation (Brack et al., (2007), Science, 317:807-810). Thus, an investigation was conducted to determine whether Wnt was potentially synergistic with the TGF-β1-dependent attenuation of myogenic potential. Myogenic potential of young and old satellite cells was examined in the following conditions: young serum with exogenous Wnt3A (by itself or simultaneously with exogenous TGF β1) or old serum with exogenous FRP3 (by itself or simultaneously with TGF-β neutralization). […] In fact, consistent with the previously reported pro-myogenic activity of Wnt, Wnt3A […].
Myofiber explant cultures and primary myogenic progenitor cells were generated from C57/Bl6 mice using methods known in the art (see e.g., Conboy et al., (2003), Science, 302:1575-1577). Myoblasts were maintained in growth media (Ham's F-10, 20% FBS, 5 ng/ml basic-FGF, and penicillin-streptomycin). Opti-MEM was used to culture myofibers explants in 10% young, 10% old, or 10% young and old mouse serum (5% each). Differentiation media consisted of DMEM and 5% horse serum. Basic-FGF was obtained from Sigma (St. Louis, Mo.) and R&D systems (Minneapolis, Minn.), Opti-MEM was obtained from Invitrogen (Carlsbad, Calif.), and all other cell culture reagents were obtained from Cellgro (Herndon, Va.).

The test system of experiment [2] is MAPK pathway / Notch in human satellite cells. The experiment can be described thus: Western blot of Delta, active Notch and pERK in human satellite cells cultured with MAPK agonists and antagonists. In kind it is cell-based. Conditions: human satellite cells in culture. The method, then:
Myofiber and satellite cell cultures were isolated from basal state human biopsies, in a manner similar to those previously described for the mouse model (Conboy et al. (2003) Science 302:1575-1577). Whole muscle biopsies were prepared for myofiber fragments by enzymatic digestion −37° C. in DMEM (Invitrogen, Carlsbad, Calif.)/Pen-Strep (Invitrogen)/0.2% Collagenase Type IIA (Sigma), trituration, and multiple sedimentation and washing procedures. Isolated satellite cells and myofibers were resuspended in growth medium (Ham's F10 nutrient mixture—Mediatech, Inc., Herndon, Va.), 10% BGS, 5 ng/ml hbFGF (Invitrogen) and 1% Pen-Strep, and cultured on Matrigel (diluted 1:250). Blood was collected from subjects for sera isolation. Briefly, blood cells were coagulated followed by centrifugation at 8,000 rpm, 4° C. in a microfuge for 3 minutes.
For Western Blot analysis, whole skeletal muscle lysates were prepared in lysis buffer (50 mM Tris, 150 mM NaCl, 1% NP40, 0.25% sodium deoxycholate and 1 mM EDTA, pH 7.4) with addition of protease inhibitor cocktail (Sigma) and 1 mM PMSF. Phosphatase activity was inhibited by 1 mM sodium fluoride and 1 mM sodium orthovanadate. For most assays, 30 μg protein extracts were run on pre-cast SDS PAGE gels (BioRad). Primary antibodies were diluted in 5% non-fat milk/1× PBST, and nitrocellulose membranes were incubated with antibody mixtures overnight at 4° C. HRP-conjugated secondary antibodies (Santa Cruz Biotech) were diluted 1:1000 in 1× PBST/1% BSA and incubated for 1 hour at room temperature. Blots were developed using Western Lightning ECL reagent (Perkin Elmer) and analyzed with Bio-Rad Gel Doc/Chemi Doc Imaging System and Quantity One software. Results were quantified by digitizing the data and normalizing pixel density of examined protein by actin-specific pixel density.
The levels of Delta, amounts of active Notch and the efficiency of myogenic responses in human satellite cells cultured in the presence of agonists and antagonists of MAPK pathway were investigated. […]
In general terms: A western blot detects proteins with antibodies after separation by electrophoresis.

In another experiment the test system is old muscle repair. Nature of the experiment: Muscle regeneration after CTX injury in mice given systemic TGF-β attenuators. In kind it is in vivo, mouse. The method, then:
Five days before the end of treatment, muscle was injured. At the end of treatment, animals were sacrificed and muscle was collected. BrdU was injected (intraperitoneal) at 3 days post-injury to label proliferating, fusion-competent myoblasts.
Experiments were conducted to rejuvenate muscle repair in old tissue by attenuating TGF-β pathway activity through systemic pharmacological intervention, in vivo. Three independent attenuators were used: (1) a small molecule inhibitor of TGF-β RI Kinase, (2) TGF-β neutralizing antibody and (3) a decoy composed of the extracellular portion of TGF-β receptor II. These molecules were administered systemically to mice, twice daily. After 10 days of dosage, muscle was injured by CTX, and 5 days after injury and BrdU administration the muscle was harvested, frozen, and examined histologically.
To control for the potential differences in the half-life of anti-TGF-β neutralizing antibody as compared to TGF-β RI Kinase inhibitor, constitutive systemic delivery of these molecules was provided by osmotic subcutaneous pumps for four weeks.

The subject of a further experiment is TGF-β1. Nature of the experiment: ELISA of circulating TGF-β1 in treated old mice. In kind it is in vivo, mouse. An excerpt:
Control injections/pumps of goat IgG yielded data typical of young and old untreated mice for muscle repair and TGF-β1 ELISA.
(In general: In an ELISA, binding on a coated surface is turned into a signal by an enzyme label.)

The next experiment has as its system TGF-β/pSmad signaling. The experiment can be described thus: Western blot of pSmad3 and TGF-β1 in muscle of treated old mice. The experiment is classed as in vivo, mouse. The following applies: osmotic pumps.

“TGF-β1: recombinant TGF-β1 added to cultures or depleted sera [reference compound]”: the “myogenic regenerative capacity (proliferating fusion-competent myoblasts, desmin/BrdU)” value in the experiment on human satellite cells was “dramatically reduced”. Moreover, the “concentration of TGF-β1 that alone suffices for inhibition of myogenic satellite cell responses” value in experiment [1] (recombinant TGF-β1 added to mouse sera depleted of endogenous TGF-β1, 1-5 ng/ml and higher) lay within 1 to 5 ng/mL.
In the case of FGF-2: MAPK agonist FGF-2, the “myogenic regenerative capacity (proliferating fusion-competent myoblasts, desmin/BrdU)” value in the experiment on human satellite cells is reported as “significantly enhanced”. In addition, in experiment [2], the Delta levels entry is reported as “induced”, the “active Notch levels” value is “induced” and the “levels of pERK” value is given as “induced”.

B1: Wnt3A: exogenous Wnt3A (protein, UniProt P56704 19-352, looked up)
Protein Wnt-3a: SYPIWWSLAVGPQYSSLGSQPILCASIPGLVPKQLRFCRNYVEIMPSVAEGIKIGIQECQHQFRGRRWNCTTVHDSLAIFGPVLDKATRESAFVHAIASAGVAFAVTRSCAEGTAAICGCSSRHQGSPGKGWKWGGCSEDIEFGGMVSREFADARENRPDARSAMNRHNNEAGRQAIASHMHLKCKCHGLSGSCEVKTCWWSQPDFRAIGDFLKDKYDSASEMVVEKHRESRGWVETLRPRYTYFKVPTERDLVYYEASPNFCEPNPETGSFGTRDRTCNVSSHGIDGCDLLCCGRGHNARAERRREKCRCVFHWCCYVSCQECTRVYDVHTCK
For the molecule B1, in experiment [1] (Wnt3A simultaneously with exogenous TGF-β1, young serum), the “generation of fusion-competent proliferating myoblasts by satellite cells” value is “enhanced”. In experiment [1] (exogenous Wnt3A), the myotube formation entry is recorded as “enhanced” and the “presence of non-myogenic fibroblastic cells (desmin-BrdU+)” value is given as “actually reduced”. For the same molecule, the “myogenic potential in young serum” value in experiment [1] (young serum with exogenous Wnt3A) was “did not reduce”.

B2: FRP: exogenous FRP3, inhibitor of Wnt (protein, UniProt Q92765 33-325, looked up)
Secreted frizzled-related …: AACEPVRIPLCKSLPWNMTKMPNHLHHSTQANAILAIEQFEGLLGTHCSPDLLFFLCAMYAPICTIDFQHEPIKPCKSVCERARQGCEPILIKYRHSWPENLACEELPVYDRGVCISPEAIVTADGADFPMDSSNGNCRGASSERCKCKPIRATQKTYFRNNYNYVIRAKVKEIKTKCHDVTAVVEVKEILKSSLVNIPRDTVNLYTSSGCLCPPLNVNEEYIIMGYEDEERSRLLLVEGSIAEKWKDRLGKKVKRWDMKLRHLGLSKSDSSNSDSTQSQKSGRNSNPRQARN
Take B2: in experiment [1] (old serum with exogenous FRP3), the “myogenic responses in old serum” value was “did not rescue”. Besides, the “regeneration of old muscle in vivo” value with old muscle repair (experimental attenuation of Wnt by FRP) is “did not improve”.

B3: soluble TGF-β receptor II: a decoy composed of the extracellular portion of TGF-β receptor II (protein, UniProt P37173 23-166, looked up)
extracellular domain: TIPPHVQKSVNNDMIVTDNNGAVKFPQLCKFCDVRFSTCDNQKSCMSNCSITSICEKPQEVCVAVWRKNDENITLETVCHDPKLPYHDFILEDAASPKCIMKEKKKPGETFFMCSCSSDECNDNIIFSEEYNTSNPDLLLVIFQ
modifications: extracellular domain
As for B3, the “circulating levels of TGF-β1” value with TGF-β1 is reported as “failed to reduce”. In addition, in the experiment on TGF-β/pSmad signaling, the “levels of TGF-β1 in old muscle” value is “not” and the “levels of pSmad3 in old muscle” value is listed as “not”. The “muscle regeneration / myogenic regenerative capacity” value in the experiment on old muscle repair (old mice, systemic administration twice daily, CTX injury after 10 days, 5 days post-injury) is reported as “did not result in the rejuvenation”.
